The values that follow come from article PMC11567960.

The EC50 is the concentration that produces a half-maximal response.

Assay [1] concerns the target cynomolgus monkey CD47 recombinant protein (cynomolgus monkey). Briefly: ELISA.
Assay [2] addresses human CD47 recombinant protein (human) (UniProt Q08722). Briefly: ELISA.
Chain of UniProt Q08722 (Q08722 19-323): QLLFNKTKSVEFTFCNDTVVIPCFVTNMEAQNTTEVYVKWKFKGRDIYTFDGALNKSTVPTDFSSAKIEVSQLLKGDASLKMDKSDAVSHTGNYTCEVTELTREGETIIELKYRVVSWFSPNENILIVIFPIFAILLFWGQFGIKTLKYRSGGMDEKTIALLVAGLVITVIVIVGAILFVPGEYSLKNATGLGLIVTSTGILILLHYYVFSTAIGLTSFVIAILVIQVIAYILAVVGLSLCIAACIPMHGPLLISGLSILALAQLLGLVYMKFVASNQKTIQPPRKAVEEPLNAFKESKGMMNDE

In the case of HX009 (bispecific antibody), the EC50 in assay [1] is 1.02 nM; in assay [2], 0.59 nM.
